Laboratory results published in US20110009283A1.
“And” between values parts separate entries of the source, which are not always exact repeats. Equal entries are not always repeated. Where two headings read alike, the source gives them in different places. Where no end group is shown, it is not given here.

Columns and labels:
[1] = target: Kv1.2 K+ channel (species not stated); assay: cell-based or functional assay
[2] = target: BK channel (species not stated); assay: cell-based or functional assay
[3] = target: Kv1.1 K+ channel (species not stated); assay: cell-based or functional assay
[4] = target: T1, Kv1.3 K+ channel, wild-type, expressed in cells (species not stated) (Homo sapiens (Human)), P22001; assay: cell-based or functional assay
[5] = target: T2, Rattus Kv1.1 (Rattus), P10499
T2 chain: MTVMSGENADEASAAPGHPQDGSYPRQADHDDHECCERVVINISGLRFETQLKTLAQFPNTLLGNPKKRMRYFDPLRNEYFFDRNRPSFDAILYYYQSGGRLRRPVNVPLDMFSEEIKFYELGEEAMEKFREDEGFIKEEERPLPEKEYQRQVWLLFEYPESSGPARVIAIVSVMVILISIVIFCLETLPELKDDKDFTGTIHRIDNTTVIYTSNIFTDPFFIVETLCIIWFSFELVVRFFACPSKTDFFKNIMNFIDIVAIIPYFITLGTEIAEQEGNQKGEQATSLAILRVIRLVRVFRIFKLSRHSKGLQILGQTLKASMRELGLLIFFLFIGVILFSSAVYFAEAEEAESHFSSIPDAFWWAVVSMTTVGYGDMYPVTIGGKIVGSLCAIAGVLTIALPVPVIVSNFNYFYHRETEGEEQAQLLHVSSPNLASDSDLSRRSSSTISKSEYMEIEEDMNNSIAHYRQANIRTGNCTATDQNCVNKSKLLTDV

[6] = target: T3, Mus BK (big conductance calcium-activated K channel) (Mus), Q08460
[7] = target: Homo Kv1.3 (Homo), P22001
[8] = target: T4, Rattus Kv1.2 (Rattus), P63142
T4 chain: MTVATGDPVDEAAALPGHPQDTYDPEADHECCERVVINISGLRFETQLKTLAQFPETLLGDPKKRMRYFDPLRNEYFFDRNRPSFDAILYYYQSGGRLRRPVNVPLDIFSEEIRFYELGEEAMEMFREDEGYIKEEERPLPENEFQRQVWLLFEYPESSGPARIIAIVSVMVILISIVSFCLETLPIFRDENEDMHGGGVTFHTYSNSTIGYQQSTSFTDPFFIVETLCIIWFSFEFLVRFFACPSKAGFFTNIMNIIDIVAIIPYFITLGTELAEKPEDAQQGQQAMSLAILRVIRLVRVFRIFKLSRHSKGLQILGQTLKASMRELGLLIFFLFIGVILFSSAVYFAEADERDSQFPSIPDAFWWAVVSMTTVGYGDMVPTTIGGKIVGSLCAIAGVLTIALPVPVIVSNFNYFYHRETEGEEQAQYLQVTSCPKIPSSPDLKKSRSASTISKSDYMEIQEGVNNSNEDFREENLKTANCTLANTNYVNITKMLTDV

[9] = target: T1, Kv1.3 K+ channel, wild-type, expressed …; assay: phage panning on HEK cells transfected with Kv1.3 vs vector; 5x10^11 phagemids
[10] = target: antiserum to sarafotoxin S6b
[11] = target: T1, Kv1.3 K+ channel, wild-type, expressed …; assay: panning of a 2:2:96 phage mixture on HEK cells expressing Kv1.3
[12] = target: T1, Kv1.3 K+ channel, wild-type, expressed …; assay: phage panning on COS cells transfected with Kv1.3 vs vector; 5x10^11 phagemids
[13] = target: T1, Kv1.3 K+ channel, wild-type, expressed …
[14] = target: T1, Kv1.3 K+ channel, wild-type, expressed …; assay: one round of phage panning on mammalian cells expressing Kv1.3
[15] = target: T1, Kv1.3 K+ channel, wild-type, expressed …; remark: listed apart in the source
[16] = target: T2, Rattus Kv1.1 (Rattus), P10499; assay: two-electrode voltage clamp, kinetics of block in Xenopus oocytes
[17] = target: T3, Mus BK (big conductance …); assay: as above
[18] = target: Homo Kv1.3 (Homo), P22001; assay: as above
[19] = target: T4, Rattus Kv1.2 (Rattus), P63142; assay: as above
[20] = target: T1, Kv1.3 K+ channel, wild-type, expressed …; remark: listed apart in the source
KcsA, wild-type, P0A334 = target: T5, KcsA, wild-type, P0A334; assay: phage panning of Shk / Camel VHH mixture on KcsA (n = 17-20)
T5 chain: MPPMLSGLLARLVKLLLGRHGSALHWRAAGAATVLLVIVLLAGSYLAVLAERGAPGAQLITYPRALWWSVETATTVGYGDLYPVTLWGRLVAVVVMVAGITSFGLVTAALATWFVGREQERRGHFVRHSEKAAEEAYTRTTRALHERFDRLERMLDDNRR

[21] = target: antiserum to sarafotoxin S6b; remark: listed apart in the source
[22] = target: KcsA-Kv1.3 (KcsA carrying a segment of the Kv1.3 pore loop)

T3 sequence (Q08460 whole entry): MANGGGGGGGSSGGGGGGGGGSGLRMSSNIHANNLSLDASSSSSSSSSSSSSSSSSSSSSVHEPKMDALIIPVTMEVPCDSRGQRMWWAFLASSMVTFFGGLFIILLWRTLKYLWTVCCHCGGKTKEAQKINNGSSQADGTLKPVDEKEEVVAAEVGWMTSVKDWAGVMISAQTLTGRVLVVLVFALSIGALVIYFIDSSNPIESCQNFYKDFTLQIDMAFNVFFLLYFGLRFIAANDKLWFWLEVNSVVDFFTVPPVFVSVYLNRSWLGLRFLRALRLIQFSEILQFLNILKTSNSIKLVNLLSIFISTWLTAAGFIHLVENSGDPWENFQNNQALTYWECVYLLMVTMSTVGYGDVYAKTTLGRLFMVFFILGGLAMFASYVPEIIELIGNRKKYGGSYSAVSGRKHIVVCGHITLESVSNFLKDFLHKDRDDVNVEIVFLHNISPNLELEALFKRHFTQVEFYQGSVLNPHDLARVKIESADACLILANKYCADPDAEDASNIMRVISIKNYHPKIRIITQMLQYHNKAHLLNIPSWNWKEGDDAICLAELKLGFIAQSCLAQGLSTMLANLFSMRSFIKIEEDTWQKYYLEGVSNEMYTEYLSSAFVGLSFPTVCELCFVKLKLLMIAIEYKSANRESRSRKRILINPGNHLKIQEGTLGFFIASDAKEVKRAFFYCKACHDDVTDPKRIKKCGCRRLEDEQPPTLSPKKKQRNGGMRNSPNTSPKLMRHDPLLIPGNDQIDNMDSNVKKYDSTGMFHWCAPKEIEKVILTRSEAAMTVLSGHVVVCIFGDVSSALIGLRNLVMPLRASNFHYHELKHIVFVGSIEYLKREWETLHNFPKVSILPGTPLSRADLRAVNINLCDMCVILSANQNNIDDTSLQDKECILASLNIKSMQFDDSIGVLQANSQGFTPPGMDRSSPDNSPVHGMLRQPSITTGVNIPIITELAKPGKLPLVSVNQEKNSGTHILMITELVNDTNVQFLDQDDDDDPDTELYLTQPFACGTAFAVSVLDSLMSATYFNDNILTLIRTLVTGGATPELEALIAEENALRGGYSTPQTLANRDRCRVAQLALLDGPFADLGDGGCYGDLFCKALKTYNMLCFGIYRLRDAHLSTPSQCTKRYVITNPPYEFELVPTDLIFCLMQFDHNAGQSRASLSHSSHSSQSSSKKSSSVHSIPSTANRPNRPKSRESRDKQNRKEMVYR
Sequence of Homo Kv1.3 (Homo), P22001 (P22001 whole entry): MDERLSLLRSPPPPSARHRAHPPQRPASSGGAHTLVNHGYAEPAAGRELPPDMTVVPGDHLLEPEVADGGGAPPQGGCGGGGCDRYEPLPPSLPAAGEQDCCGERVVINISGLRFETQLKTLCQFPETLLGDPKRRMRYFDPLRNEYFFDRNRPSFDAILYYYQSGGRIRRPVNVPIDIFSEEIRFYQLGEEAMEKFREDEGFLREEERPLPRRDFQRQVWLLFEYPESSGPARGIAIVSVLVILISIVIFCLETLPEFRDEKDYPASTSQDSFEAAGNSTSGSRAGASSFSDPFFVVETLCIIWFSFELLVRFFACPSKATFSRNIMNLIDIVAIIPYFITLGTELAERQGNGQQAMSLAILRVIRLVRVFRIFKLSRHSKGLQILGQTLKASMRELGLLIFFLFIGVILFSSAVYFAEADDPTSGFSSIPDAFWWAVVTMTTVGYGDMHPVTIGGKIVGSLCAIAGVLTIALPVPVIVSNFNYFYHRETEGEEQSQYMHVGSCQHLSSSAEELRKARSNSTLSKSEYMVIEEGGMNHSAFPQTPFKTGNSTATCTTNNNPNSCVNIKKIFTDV
T1 sequence (P22001 whole entry): as above

Binder: ZFTNVSCTTSKECWSVCQRLHNTSRGKCMNKKCRCYS (modifications not checked) [Charybdotoxin (CTX)]
- approximate IC50 (nM) of channel block [1]: 5.6 nM
- approximate IC50 (nM) of channel block [2]: 3 nM
- approximate IC50 (nM) of channel block [3]: 1500 nM
- approximate IC50 (nM) of channel block [4]: 2.5 nM
- Ki [5]: > 1000 nM
- Ki [6]: 5 nM
- Ki [7]: 0.9 nM
- Ki [8]: 9 nM

Binder: GVEINVKCSGSPQCLKPCKDAGMRFGKCMNRKCHCTPK (modifications not checked) [Kaliotoxin-1 phage (KTX-phage)]
- fold enrichment (Kv1.3-transfected vs vector cells) [9]: 20 fold
- Output (% Ligands) [10]: 0%
- block of Kv1.3 currents, whole-cell patch-clamp in HEK293 cells, 1 nM KTX-phage [4]: 35%
- time to half reversal of inhibition on washing [4]: 20 min
- % of phages after the 2nd panning [11]: 40%
- fold enrichment (Kv1.3-transfected vs vector cells) [12]: 10 fold
- output KTX (%) [13]: 22% and 30% and 26%
- Fold Enrichment [14]: 4.3 fold and 5.2 fold
- % of recovered phage, 2nd round [15]: 0%
- % of recovered phage, 3rd round [15]: 58%

Binder: GVEINVKCSGSPQCLKPCKDAGMRFGKCMNRKCHCTPK (modifications not checked) [Kaliotoxin-1 (KTX)]
- approximate IC50 (nM) of channel block [1]: 1.4 nM
- approximate IC50 (nM) of channel block [2]: 5 nM
- approximate IC50 (nM) of channel block [3]: 0.1 nM
- approximate IC50 (nM) of channel block [4]: 0.5 nM
- koff [16]: 0.009 s⁻¹
- kon [16]: 3e+07 M⁻¹ s⁻¹
- koff [17]: 0.0211 s⁻¹
- kon [17]: 21000 M⁻¹ s⁻¹
- koff [18]: 0.007 s⁻¹
- kon [18]: 8e+08 M⁻¹ s⁻¹
- koff [19]: 0.21 s⁻¹
- kon [19]: 1.3e+07 M⁻¹ s⁻¹
- Ki [5]: 1.1 nM
- Ki [6]: 1.6 nM
- Ki [7]: 0.008 nM
- Ki [8]: 20 nM

Binder: GVPINVSCTGSPQCIKPCKDAGMRFGKCMNRKCHCTPK (modifications not checked) [Agitoxin-2 (AgTx2)]
- approximate IC50 (nM) of channel block [1]: 26.8 nM
- approximate IC50 (nM) of channel block [2]: 1150 nM
- approximate IC50 (nM) of channel block [3]: 0.04 nM
- approximate IC50 (nM) of channel block [4]: 0.004 nM
- Ki [5]: 0.17 nM
- Ki [7]: 0.041 nM
- Ki [8]: 3.4 nM

Binder: GVEINVKCSGSPQCLKPCKDAGMDFGDCMNDKCHCTPK (modifications not checked) [DDD-KTX-phage (inactive kaliotoxin-1, R24D, K27D, R31D, on phage)]
- # of genotype, Test [20]: 2 colonies
- % of genotype, Test [20]: 10%
- % of recovered phage, 2nd round [15]: 100%
- % of recovered phage, 3rd round [15]: 42%

Binder: RSCIDTIPKSRCTAFQCKHSMKYRLSFCRKTCGTC (modifications not checked) [Shk phage (sea anemone K+ channel toxin ShK on phage)]
- % phages, OUTPUT (KcsA, wild-type, P0A334): 0%

B1: sarafotoxin S6b phage (peptide)
chain: CSCKDMTDKECLYFCHQDVIW
modifications: cysteine pairing not given here; also: displayed on phage via linker and coat protein
- Output (% Ligands) [21]: 100%
- Output (% Ligands) [22]: 0%
